Results published in PMC3615143.

Target: Glut1 (UniProt P11166)
Assay: Flag IP, HA-TXNIP blot
Details: reference: HA-TXNIP wild type, 2DG-treated cells; sites S308

## TXNIP (from UniProt Q9H3M7) HA-TXNIP S308A, 2DG-treated cells
  binding against the reference: stronger
